Literature values as cited in article PMC8896763.
One block for each substance: values may come before it.

Columns and labels:
[1] = biological target: PSGL-1 (Homo sapiens) (UniProt Q14242)
[2] = biological target: CD48 (Rattus norvegicus) (UniProt P10252)
[3] = biological target: CD58 (Homo sapiens) (UniProt P19256)
[4] = biological target: CD80 (UniProt P33681)
Chain of UniProt P33681 (P33681 35-242): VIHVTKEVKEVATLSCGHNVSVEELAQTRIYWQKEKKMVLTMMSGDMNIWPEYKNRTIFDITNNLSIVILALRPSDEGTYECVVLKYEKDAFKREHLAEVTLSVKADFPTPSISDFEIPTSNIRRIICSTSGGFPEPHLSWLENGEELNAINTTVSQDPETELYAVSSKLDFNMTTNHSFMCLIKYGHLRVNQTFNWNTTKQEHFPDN

Chain of UniProt Q14242 (Q14242 42-320): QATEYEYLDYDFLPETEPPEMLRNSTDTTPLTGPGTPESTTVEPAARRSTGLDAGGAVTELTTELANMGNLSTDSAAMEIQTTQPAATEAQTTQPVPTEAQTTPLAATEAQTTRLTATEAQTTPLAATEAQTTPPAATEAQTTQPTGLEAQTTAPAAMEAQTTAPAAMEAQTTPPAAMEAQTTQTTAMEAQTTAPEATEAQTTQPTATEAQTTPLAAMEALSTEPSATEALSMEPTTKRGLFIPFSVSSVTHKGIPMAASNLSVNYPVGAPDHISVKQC
Chain of UniProt P10252 (P10252 23-217): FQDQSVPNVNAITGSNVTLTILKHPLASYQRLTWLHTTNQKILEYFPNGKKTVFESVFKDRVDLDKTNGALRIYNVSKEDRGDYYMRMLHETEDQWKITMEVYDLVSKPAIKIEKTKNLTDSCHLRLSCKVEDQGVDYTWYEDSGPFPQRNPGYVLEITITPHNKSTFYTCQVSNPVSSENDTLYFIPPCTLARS
Chain of UniProt P19256 (P19256 29-215): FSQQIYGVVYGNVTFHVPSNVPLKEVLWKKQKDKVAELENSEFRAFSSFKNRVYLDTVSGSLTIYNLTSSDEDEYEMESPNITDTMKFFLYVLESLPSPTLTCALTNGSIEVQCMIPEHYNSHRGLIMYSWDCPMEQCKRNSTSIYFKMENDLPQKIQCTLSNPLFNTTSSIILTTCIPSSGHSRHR

- Kd [1]: 0.3 µM
Substance: P-selectin (from UniProt P16109)

- Kd [2]: 60 µM
Substance: CD2 (from UniProt P08921)

- Kd [3]: 10 µM
Substance: CD2 (from UniProt P06729)

- Kd [4]: 2 µM
Substance: CD28 (from UniProt P10747)
